Measurements published in patent US7244707.

Biological target: cation-independent mannose-6-phosphate (CIM6P) receptor, human (human) (UniProt P11717)
Assay: cell-based or functional assay

UniProt P11717, sequence (P11717 41-2491): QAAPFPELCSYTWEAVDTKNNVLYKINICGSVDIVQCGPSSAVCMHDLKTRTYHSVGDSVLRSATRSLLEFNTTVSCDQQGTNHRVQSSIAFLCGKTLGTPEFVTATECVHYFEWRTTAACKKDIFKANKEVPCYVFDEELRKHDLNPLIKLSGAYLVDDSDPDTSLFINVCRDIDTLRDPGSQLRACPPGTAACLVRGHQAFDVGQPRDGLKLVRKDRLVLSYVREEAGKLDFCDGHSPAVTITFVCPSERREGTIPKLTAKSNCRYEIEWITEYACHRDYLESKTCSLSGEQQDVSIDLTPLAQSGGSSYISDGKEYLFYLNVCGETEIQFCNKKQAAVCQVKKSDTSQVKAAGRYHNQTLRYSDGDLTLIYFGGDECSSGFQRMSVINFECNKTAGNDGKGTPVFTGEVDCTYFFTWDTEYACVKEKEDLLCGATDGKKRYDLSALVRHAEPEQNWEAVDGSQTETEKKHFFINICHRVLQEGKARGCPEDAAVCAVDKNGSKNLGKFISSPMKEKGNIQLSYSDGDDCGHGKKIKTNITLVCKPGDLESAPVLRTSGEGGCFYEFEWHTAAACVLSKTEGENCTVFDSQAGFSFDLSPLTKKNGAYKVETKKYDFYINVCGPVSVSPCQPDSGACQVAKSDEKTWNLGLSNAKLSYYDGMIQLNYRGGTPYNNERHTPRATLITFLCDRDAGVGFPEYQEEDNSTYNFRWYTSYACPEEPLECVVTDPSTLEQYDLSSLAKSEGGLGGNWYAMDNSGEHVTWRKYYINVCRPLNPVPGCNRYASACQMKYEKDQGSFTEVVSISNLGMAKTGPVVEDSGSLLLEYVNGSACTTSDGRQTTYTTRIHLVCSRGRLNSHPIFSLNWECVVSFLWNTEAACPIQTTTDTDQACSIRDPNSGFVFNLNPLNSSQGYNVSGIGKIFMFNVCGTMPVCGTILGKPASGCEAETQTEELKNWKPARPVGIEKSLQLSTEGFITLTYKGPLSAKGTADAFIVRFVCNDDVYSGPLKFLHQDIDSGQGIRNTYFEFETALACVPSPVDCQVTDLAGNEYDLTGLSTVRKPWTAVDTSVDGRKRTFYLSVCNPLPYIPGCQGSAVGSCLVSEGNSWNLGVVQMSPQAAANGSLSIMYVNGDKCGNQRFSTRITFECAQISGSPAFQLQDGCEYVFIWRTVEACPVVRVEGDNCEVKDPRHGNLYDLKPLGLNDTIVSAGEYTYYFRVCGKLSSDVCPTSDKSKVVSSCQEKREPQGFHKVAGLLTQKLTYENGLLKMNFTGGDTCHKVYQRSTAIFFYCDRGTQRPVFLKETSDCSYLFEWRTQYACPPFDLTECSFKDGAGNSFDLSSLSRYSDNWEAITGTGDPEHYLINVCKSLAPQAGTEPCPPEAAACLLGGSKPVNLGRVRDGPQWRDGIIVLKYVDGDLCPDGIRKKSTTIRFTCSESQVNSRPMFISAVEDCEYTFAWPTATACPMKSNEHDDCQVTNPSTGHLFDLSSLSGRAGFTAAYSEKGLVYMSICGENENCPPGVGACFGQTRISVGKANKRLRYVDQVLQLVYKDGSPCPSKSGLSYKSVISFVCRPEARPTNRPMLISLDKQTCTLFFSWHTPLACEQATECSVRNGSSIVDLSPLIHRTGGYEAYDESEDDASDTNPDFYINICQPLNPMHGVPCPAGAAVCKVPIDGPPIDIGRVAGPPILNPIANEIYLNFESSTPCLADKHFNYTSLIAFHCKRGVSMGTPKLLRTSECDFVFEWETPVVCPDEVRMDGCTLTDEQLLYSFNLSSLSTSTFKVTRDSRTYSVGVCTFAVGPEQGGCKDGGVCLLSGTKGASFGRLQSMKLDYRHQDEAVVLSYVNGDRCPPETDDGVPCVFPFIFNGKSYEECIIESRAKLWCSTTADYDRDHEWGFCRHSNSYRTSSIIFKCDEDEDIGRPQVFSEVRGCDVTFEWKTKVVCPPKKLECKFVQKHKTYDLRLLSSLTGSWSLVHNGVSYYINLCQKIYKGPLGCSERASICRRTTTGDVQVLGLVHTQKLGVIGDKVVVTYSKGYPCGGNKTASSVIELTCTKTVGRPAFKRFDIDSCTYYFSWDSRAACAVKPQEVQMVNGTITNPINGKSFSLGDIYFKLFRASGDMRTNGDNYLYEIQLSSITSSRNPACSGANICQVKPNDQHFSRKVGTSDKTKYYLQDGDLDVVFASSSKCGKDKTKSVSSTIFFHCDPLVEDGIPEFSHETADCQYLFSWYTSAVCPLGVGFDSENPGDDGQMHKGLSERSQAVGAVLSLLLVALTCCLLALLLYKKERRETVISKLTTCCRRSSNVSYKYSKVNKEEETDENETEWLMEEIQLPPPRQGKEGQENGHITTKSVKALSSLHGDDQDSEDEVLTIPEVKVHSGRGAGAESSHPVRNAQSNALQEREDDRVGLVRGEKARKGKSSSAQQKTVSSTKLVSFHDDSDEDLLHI

Active TGF -1 as % Control (TF1 monocytes, TGF-1 ELISA), 25 nmol/L Leu^27-IGF-II: 12.7 % Control
Substance: Leu^27IGF-II (receptor grade) (from UniProt P01344 25-91) (ligand)
